Experimental data reported in patent publication US6617114B1, “Identification of drug complementary combinatorial libraries” (priority 1996, dated 2003).
Where no end group is shown, it is not given here.

What was measured:
[1] = molecular target: estrogen receptor α (ER) (Homo sapiens, UniProt P03372); assay: Phage ELISA competition on immobilized estrogen receptor
[2] = molecular target: T1, Agrobacterium faecalis beta-glucosidase (Agrobacterium sp., UniProt P12614); assay: Phage ELISA competition with conduritol on beta-glucosidase; format: binding; settings: 3 mM conduritol for 3 hours
T1 sequence (P12614 1-459): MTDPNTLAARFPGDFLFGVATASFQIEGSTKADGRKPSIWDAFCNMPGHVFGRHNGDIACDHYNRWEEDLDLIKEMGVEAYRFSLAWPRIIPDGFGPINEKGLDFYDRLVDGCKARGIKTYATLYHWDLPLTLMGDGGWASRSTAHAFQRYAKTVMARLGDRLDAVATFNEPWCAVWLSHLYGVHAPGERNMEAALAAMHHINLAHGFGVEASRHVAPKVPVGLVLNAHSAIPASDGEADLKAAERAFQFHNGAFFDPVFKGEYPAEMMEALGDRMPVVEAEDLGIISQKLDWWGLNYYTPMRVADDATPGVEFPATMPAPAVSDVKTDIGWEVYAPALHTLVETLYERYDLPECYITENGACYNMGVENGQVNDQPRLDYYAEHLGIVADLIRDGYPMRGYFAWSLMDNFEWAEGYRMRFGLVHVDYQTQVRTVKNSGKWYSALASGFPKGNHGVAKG
Experimental: For the first method of affinity purification, phage libraries were mixed with 1 μg biotinylated target protein in solution and allowed to incubate at room temperature for 4 hours. Phage:protein complexes were then captured on streptavidin paramagnetic beads (Promega, cat#Z5482) by adding beads and incubating the tubes while rotating at room temperature for 30 minutes. The complexes were then drawn to the sides of the tubes using a magnet and the beads were washed with TBST containing 5 mM biotin. Beads were washed once in the first round of panning and 3 times for each additional round. Phage were eluted and amplified using the sequential procedure described in example 3. In the second method of affinity purification, phage libraries were mixed with 1 μg biotinylated target protein that was first captured on streptavidin paramagnetic beads. After the protein was bound, the beads were washed once with TBST containing 5 mM biotin to block the remaining binding sites on streptavidin. The libraries and beads were then mixed at room temperature on a rotator for 4 hours and washed, eluted and amplified as above. Phage ELISAs were carried out by first coating a microtiter plate (Immulon4, Dynex) with 1 μg streptavidin, followed by blocking with BSA. Biotinylated protein was then added to the wells and allowed to bind to the streptavidin for 1 hour. […]

[3] = molecular target: T2, UL44 (Human cytomegalovirus, UniProt P16790); assay: Phage ELISA competition on immobilized GSTUL44, UL44-specific phage; format: binding; settings: various concentrations of competitor
T2 construct: made in house; host or cells: E. coli DH5aF′
Experimental: (§1) To map the. binding site for the UL44 specific phage displaying the constrained peptide from the X10C library, we competed this phage for binding with linear double stranded DNA. To show the specificity of binding for the substrates and the phage, both phage were competed with both substrates. Microtiter plates were coated with GSTUL44 protein and blocked as described above. Phage specific for either the GST portion or the UL44 portion of the fusion were then added to separate wells and at the same time various concentrations of either GSH or DNA were added. It is important to keep in mind that these phage were isolated from the same affinity selection run.

[4] = molecular target: T3, GST portion of the GSTUL44 fusion (Schistosoma japonicum, UniProt P08515); assay: Phage ELISA competition on immobilized GSTUL44, GST-specific phage; format: binding; settings: various concentrations of competitor
T3 construct: made in house; host or cells: E. coli DH5aF′
Experimental: as §1

[5] = molecular target: T4, GST-UL44 (Human cytomegalovirus, UniProt P16790); assay: Enzyme Linked Spectrophotometric Assay (ELSA) for CMV UL44; format: binding
T4 construct: made in house; host or cells: E. coli DH5aF′
Experimental: IMMULON-4 (cat.#011-010-3855) 96-well microtitration test plates were purchased from Dynatech. Bovine serum, albumin (BSA) (A2153), Streptavidin alkaline phosphatase (SA-AP) (S2890), TWEEN-20 detergent (P1379), and p-nitrophenyl phosphate tablets (pNPP) (N-1891, N-2770) were purchased from Sigma. Phosphate buffered saline (PBS) (21600-010) was obtained from Gibco-BRL. Ultrapure glycerol (#16374) was purchased from USB. Biotinylated surrogate ligands were prepared as a 1 mM stock solution in the appropriate solvent (H2O or 10% acetonitrile). SA-AP was prepared as a 1 mg/ml stock solution in PBS containing 10% glycerol and stored in aliquots at −80° C.
Target protein was immobilized in microtiter wells by incubating 0.5-2.0 μg per well in 100 μl of 0.1 M NaHCO3 overnight at 4° C. […] During the 1 hour blocking period, the SA-AP:surrogate ligand conjugate was prepared by mixing 2 μg SA-AP and 50 pmol biotinylated surrogate ligand for each well of target protein. (This corresponds to a 1:1 ratio of biotinylated peptide to biotin binding sites.) The mixture was incubated at room temperature for 15-20 minutes and then diluted with Tris-buffered saline-TWEEN-20 detergent (TBST) 10 mM Tris-HCl, pH 8.0, 150 mM NaCl, 0.05% TWEEN-20 detergent such that there was 100 μl of conjugate per well. […]
After blocking, the wells were washed once with 200 μl TBST. […] The absorbance was read at 405 nm.

[6] = molecular target: T5, carboxypeptidase B from pig pancreas (pig), P09955; assay: cross reactivity phage ELISA
T5 chain: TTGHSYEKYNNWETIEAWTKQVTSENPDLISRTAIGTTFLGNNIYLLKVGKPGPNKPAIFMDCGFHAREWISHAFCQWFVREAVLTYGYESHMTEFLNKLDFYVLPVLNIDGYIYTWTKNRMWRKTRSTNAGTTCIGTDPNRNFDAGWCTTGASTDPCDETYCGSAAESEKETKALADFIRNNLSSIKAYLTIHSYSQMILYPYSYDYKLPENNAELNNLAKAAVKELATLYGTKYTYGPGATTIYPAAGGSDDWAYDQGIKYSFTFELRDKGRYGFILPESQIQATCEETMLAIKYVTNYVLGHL

[7] = molecular target: T6, Yeast alcohol dehydrogenase (yeast), P00330; assay: cross reactivity phage ELISA
T6 chain: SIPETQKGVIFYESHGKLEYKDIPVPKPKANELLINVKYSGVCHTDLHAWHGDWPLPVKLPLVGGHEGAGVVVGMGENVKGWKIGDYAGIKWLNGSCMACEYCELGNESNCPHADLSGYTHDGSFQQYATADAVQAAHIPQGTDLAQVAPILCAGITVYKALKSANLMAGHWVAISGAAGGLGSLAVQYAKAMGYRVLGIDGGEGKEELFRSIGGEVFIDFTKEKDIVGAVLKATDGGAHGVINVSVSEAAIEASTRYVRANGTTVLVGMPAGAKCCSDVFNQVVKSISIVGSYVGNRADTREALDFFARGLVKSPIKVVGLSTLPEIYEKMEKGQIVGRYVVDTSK

[8] = molecular target: T7, E. coli proline tRNA synthetase (E. coli), P16659; assay: cell-based or functional assay
T7 chain: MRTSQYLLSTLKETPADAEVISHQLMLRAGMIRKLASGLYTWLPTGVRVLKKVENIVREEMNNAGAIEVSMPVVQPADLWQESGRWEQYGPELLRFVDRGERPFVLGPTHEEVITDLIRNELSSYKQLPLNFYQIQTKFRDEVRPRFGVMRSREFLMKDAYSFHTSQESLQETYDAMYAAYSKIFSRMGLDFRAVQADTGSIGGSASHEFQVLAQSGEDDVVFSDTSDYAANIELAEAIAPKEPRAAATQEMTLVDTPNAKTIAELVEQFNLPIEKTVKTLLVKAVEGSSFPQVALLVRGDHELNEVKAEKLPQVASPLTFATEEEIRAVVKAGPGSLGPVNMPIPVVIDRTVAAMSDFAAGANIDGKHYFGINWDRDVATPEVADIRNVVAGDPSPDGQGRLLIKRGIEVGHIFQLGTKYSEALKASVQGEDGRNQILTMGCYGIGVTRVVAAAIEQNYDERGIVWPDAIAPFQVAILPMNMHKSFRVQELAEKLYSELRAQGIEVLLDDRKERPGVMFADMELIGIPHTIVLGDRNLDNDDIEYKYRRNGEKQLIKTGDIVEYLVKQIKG

[9] = molecular target: T7, E. coli proline tRNA synthetase (E. …); assay: tRNA charging (enzyme activity) assay, competitive in respect to proline

estrogen receptor α (ER), sequence (P03372 whole entry): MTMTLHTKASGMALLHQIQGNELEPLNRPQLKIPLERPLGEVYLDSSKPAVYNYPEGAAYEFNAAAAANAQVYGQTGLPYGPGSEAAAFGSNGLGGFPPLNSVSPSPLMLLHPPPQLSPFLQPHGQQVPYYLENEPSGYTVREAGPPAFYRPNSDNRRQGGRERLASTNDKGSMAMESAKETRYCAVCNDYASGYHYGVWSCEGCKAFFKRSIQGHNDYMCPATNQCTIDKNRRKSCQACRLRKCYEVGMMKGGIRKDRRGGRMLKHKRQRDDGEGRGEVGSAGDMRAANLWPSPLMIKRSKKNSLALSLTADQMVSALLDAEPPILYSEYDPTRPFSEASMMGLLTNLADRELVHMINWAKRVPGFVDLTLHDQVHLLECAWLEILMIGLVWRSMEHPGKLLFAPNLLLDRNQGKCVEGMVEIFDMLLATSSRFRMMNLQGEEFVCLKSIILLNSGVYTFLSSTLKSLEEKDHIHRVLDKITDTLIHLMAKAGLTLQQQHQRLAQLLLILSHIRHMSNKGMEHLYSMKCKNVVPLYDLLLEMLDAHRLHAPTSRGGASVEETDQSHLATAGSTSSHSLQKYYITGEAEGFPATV
T4 sequence (P16790 whole entry): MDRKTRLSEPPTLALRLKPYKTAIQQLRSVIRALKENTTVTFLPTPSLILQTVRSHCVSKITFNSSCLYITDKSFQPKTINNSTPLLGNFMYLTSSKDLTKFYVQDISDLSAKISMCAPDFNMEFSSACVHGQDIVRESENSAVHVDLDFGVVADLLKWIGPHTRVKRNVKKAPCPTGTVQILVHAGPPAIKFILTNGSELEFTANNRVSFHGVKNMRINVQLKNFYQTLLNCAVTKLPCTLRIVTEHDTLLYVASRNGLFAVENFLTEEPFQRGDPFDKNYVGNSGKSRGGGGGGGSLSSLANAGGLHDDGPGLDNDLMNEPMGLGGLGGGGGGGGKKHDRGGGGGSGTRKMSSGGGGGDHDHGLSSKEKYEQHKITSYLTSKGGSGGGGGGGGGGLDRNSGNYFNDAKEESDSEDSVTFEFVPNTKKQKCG
T2 sequence (P16790 whole entry): as above
T3 sequence (P08515 whole entry, the tested form may be a part): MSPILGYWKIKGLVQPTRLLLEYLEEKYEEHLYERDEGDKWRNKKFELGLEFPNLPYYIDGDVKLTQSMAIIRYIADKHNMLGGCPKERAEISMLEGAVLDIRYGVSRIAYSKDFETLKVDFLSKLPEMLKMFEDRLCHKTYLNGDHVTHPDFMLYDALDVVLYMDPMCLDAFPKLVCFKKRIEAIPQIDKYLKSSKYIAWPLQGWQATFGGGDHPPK

Molecule: W L D G L P L Y H E V (WLDGLPLYHEV) [Peptide 5]
- effect of antiestrogens on phage binding to ER ([1]; phage selected with estradiol, 100 μM tamoxifen, nafoxidine, clomiphene): S S L T S R D F G S W Y A S R * (SEQ ID NO:156)

Molecule: O[C@@H]1[C@H](O)[C@@H](O)C=C[C@H]1O [conduritol]
- binding of phage from group 1 after conduritol [2]: unaffected
- binding of phage from group 2 after conduritol [2]: inhibited

Molecule: N[C@@H](CCC(=O)N[C@@H](CS)C(=O)NCC(=O)O)C(=O)O [GSH, glutathione]
- binding of UL44 specific phage (X10C peptide) to GSTUL44 in presence of competitor [3]: no effect
- binding of GST specific phage to GSTUL44 in presence of competitor [4]: competed in a dose dependent fashion

Molecule: H-Ser-Gly-Ser-Gly-Glu-His-Val-Cys-Ser-Trp-Gly-Trp-Gly-Arg-Cys-OH (H-SGSGEHVCSWGWGRC-OH; cysteine pairing not given here) [non-biotinylated UL44 peptide]
- competition of biotinylated UL44 peptide binding ([5]; self-competition): competed specifically

Molecule: 4-hydroxytamoxifen [reference compound]
- competition with ER binding phage selected in the absence of estradiol [1]: does not inhibit

Molecule: Biotin-H-Ser-Gly-Ser-Gly-Glu-His-Val-Cys-Ser-Trp-Gly-Trp-Gly-Arg-Cys-OH [UL44 BioKey]
- specificity of binding of biotinylated peptide ([5]; tested on streptavidin, GST-UL44, GST, GST-SrcSH3): binds specifically to UL44

B1: phage displaying … (peptide)
peptide: SRLLEVSPGWWQMSR
modifications: not checked
- fold ELISA signal on the specific target vs any other target tested [6]: > 10 fold

B2: phage displaying … (peptide)
peptide: SSFRELKPGWWSYSR
modifications: not checked
- fold ELISA signal on the specific target vs any other target tested [6]: > 10 fold

B3: phage displaying … (peptide)
peptide: SSWGDYFNWRDGLSR
modifications: not checked
- fold ELISA signal on the specific target vs any other target tested [6]: > 10 fold

B4: phage displaying … (peptide)
peptide: SSWQGNVLLGNWISR
modifications: not checked
- fold ELISA signal on the specific target vs any other target tested [7]: > 10 fold

B5: phage displaying … (peptide)
peptide: SSSFKPWPIYLGSSR
modifications: not checked
- fold ELISA signal on the specific target vs any other target tested [7]: > 10 fold

B6: phage displaying … (peptide)
peptide: SSNYWWQSPVLSRHSR
modifications: not checked
- fold ELISA signal on the specific target vs any other target tested [7]: > 10 fold

B7: phage displaying … (peptide)
peptide: SSLLNESRLQWSTSR
modifications: not checked
- fold ELISA signal on the specific target vs any other target tested [7]: > 10 fold

B8: phage displaying … (peptide)
peptide: SVSVGMKPSPRP
modifications: not checked
- fold ELISA signal on the specific target vs any other target tested [7]: > 10 fold

B9: phage displaying … (peptide)
peptide: SRQVEVFKPWPVYSR
modifications: not checked
- fold ELISA signal on the specific target vs any other target tested [7]: > 10 fold

B10: non-biotinylated ProRS peptide (peptide)
peptide: SRVCAIWPDLDGCSR
modifications: not fully specified; cysteine pairing not given here
- charging assay (enzymatic activity of the target) [8]: 50 % inhibition
- Ki [9]: > 500 µM
